Results taken from US20200239597A1, “AN ANTI-APOPTOTIC FUNCTION OF PKM2 AND INTRACELLULARLY EXPRESSED SCFV ANTIBODIES” (La Jolla Institute for Allergy and Immunology, priority 2017, published 2020).

Key:
[1] = test system: HCT116 and U2OS cells; test: Clonogenic survival with etoposide or staurosporine; assay type: cell-based; details: 150 nM etoposide
Description: 5×10^5 HCT116 and U2OS cells were plated and transfected with BimS expression plasmid including 150 nM etoposide or 1 μM Staurosporine. The plates were fixed and stained with crystal violet after 5 days and the total areas of colonies were measured. Mean, SD and P values were calculated from 3 individual plates.

[2] = test system: HCT116 cells; test: Clonogenic rescue from BimS-induced death, HCT116; assay type: cell-based
[3] = target: Bax (Homo sapiens, UniProt Q07812); test: In vitro Bax/cBid membrane permeabilization in liposomes or Xenopus egg mitochondrial outer membrane vesicles; assay type: biochemical; details: recombinant scFv 5 added together with PKM2; not shown
Bax, sequence (Q07812 whole entry, species assumed): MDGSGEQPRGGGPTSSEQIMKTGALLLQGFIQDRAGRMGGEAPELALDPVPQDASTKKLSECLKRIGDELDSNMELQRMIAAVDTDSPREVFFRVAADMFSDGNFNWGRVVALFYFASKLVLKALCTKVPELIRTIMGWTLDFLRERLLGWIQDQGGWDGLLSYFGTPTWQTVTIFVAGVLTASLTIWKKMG
Text: Because no cytoprotective effect was seen when PKM2 was stimulated with allosteric activator TEPP-46 alone, or when PKM2 was replaced with the constitutively active PKIM1 (FIG. 3), the present inventors conclude that increased pyruvate kinase activity per se was insufficient for the cell survival effect induced by IB5. To test whether IB5:PIKM2 complexes could affect pro-apoptotic Bcl-2 family proteins directly, the present inventors used their own previously well-validated in vitro systems that recapitulate Bcl-2 family protein function in membranes. Here, recombinant Bax and cleaved Bid (cBid) proteins are incubated with protein-free liposomes or with isolated Xenopus egg mitochondrial outer membrane vesicles. Bax then becomes inserted into the membranes and forms large pores that recapitulate MOMP as it occurs within cells (Gillies et al., 2015; Kuwana et al., 2002; Kuwana et al., 2016; Schafer et al., 2009). The present inventors observed no effect of adding recombinant scFv 5 and PKIVI2 to these systems (not shown). Thus, the inventors saw no evidence that PKM2 acts directly on the process of Bax/Bak-mediated MOMP.

[4] = test system: mouse embryonic fibroblasts (MEFs); test: BimS-induced death in MEFs (WT, PKM2-deficient, reconstituted), surviving cells counted; assay type: cell-based
Description: Wild type (WT) mouse embryonic fibroblasts (MEFs), PKM2-deficient MEFs, or PKM2-deficient MEFs reconstituted with WT or mutant PKIM2 cDNA, were infected or not with IB5, then later transfected with BimS expression plasmid. Surviving cells were counted 48 h afterwards.
(§1) Cell viability was measured with a Countess™ Automated Cell Counter (Invitrogen) using trypan blue. For the clonogenic survival assay, 293T or MEFs cells were seeded in 6-well plates at 1×10^5 cells/well in a 2-ml volume, transfected with BimS cDNA and incubated for 24 h. Afterwards, the medium was replaced and the cells cultured for 3-4 days. Thereafter, the plates were rinsed with PBS and fixed and stained with a solution containing crystal violet (0.5% w/v) and glutaraldehyde (6% v/v) as described (Franken et al., 2006).

[5] = test system: 293T cells; test: Clonogenic survival assay after BimS transfection, 293T cells; assay type: cell-based, human; details: 293T cells
Description: Control 293T or IB5-expressing cells were incubated with or without 27 µg/ml TEPP-46 for 3 h, then transfected with BimS cDNA in a further 24-h incubation also including TEPP-46 or vehicle. The plates were fixed and stained with crystal violet after 1 week. The total area of colonies (a measure of the total mass of proliferating cells) formed in each well from were quantified using ImageJ software; mean±SEM are shown from 3 independent experiments.
as §1

[6] = target: T1, PKM2 (K422R) (Homo sapiens, UniProt P14618, K422R); test: Blue native gel electrophoresis, PKM2 (K422R); assay type: binding; details: with or without FBP
T1 construct: His; made in house; host or cells: Escherichia coli BL21(DE3) (stated generally for WT and mutant PKM2)
T1 sequence (P14618 whole entry K422R): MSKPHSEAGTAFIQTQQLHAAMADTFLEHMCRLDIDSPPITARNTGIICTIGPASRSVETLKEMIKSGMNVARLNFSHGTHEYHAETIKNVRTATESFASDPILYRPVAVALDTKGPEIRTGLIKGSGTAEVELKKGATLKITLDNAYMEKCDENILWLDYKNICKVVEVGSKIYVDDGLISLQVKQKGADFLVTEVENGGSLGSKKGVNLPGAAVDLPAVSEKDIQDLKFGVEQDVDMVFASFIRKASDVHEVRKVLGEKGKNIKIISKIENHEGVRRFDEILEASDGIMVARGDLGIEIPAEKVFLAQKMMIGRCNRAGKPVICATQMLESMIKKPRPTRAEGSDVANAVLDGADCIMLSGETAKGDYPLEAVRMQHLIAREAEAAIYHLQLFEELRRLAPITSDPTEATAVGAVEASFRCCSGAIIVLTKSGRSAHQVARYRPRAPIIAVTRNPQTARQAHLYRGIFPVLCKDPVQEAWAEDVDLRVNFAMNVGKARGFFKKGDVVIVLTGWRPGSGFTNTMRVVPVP
Description: Left: A monovalent form of scFv 5, produced in E. coli, induced tetramer formation in WT PKM2 along with a bandshift whose magnitude was dependent on the input amount of scFv 5. […] Reaction volume was 20 μl.
To test the possibility that PKM2 tetramerization is important for the cell survival activity, the present inventors reconstituted PKM2-deficient MEFs with the stably tetrameric PKIM2 (K422R) mutant. […] Blue native gel electrophoresis confirmed the spontaneous formation of K422R tetramers, in the absence of FBP (FIG. 4A). […] The present inventors conclude that IB5 can bind to PKIM2 (K422R), at least to the active R-state form. Interaction of IB5 may further stabilize the active R-state conformation of PKM2, especially in the presence of the allosteric activators FBP or TEPP-46.

[7] = test system: Bcl-2 family proteins; test: Immunoblots of Bcl-2 family proteins; assay type: cell-based, human; details: alone or in combination; TEPP-46 27 μM
Description: Levels of several Bcl-2 family proteins were unchanged following IB5 expression or incubation with TEPP-46, or both. Cell lysates from 293T cells infected with and without IB5 and incubated with and without TEPP-46 (27 μM) were separated on SDS-12% polyacrylamide gels. Bcl-2 family proteins were detected by immunoblotting. The bands were quantified using ImageJ and normalized to the control cell lysate on the leftmost lane.
293T cells were washed with PBS and lysed with PBS containing 1% NP-40. Protein concentration was determined using Pierce™ BCA reagent (ThermoFisher; 23221, 23224). 35 μg protein was loaded in each lane of 12% SDS-PAGE gels. Proteins were transferred to nitrocellulose membrane and immunoblotted with the following primary antibodies: anti-Bax antibody (Santa Cruz N20), anti-Bak antibody (Cell Signaling 3814), anti-Bid antibody (R&D Systems AF860), anti-Bim antibody (Sigma B7929), anti-Puma antibody (Cell Signaling 4976), anti-Bcl-2 antibody (Abcam 32124), anti-Bcl-xL antibody (Cell Signaling 2764) and anti-Mcl-1 (Santa Cruz S19) at 1:1000 dilution. The secondary anti-rabbit and mouse antibodies, conjugated with HRP, were obtained from Santa Cruz and were used at 1:2000 dilution. The luminescence signal was detected using ECL reagent (ThermoFisher 32106).

[8] = test system: endogenous PKM2, Bim EL and L isoforms; test: Expression of endogenous PKM2 and Bim isoforms in 293T cells; assay type: cell-based, human
[9] = test system: PKM2-deficient MEFs reconstituted with WT PKM2; test: Mitochondrial length by fluorescence microscopy (Tom20 staining); assay type: cell-based, mouse; details: PKM2-null MEFs reconstituted with WT PKM2
Text: IB5 expression with WT PKM2 increased mitochondrial length, and PKM2 (K422R) expression increased mitochondrial length even in the absence of IB5. PKM2-deficient MEFs reconstituted with WT PKIM2 or PKM2(K422R) cDNA, were infected or not with IB5 lentivirus. […] Mitochondria were visualized by fluorescence microscopy after staining with Tom20 antibodies. Representative confocal images are shown.
Cells were analyzed 3 d after transfection with the indicated cDNA constructs (mean±s.e.m. of 3-5 experiments of 120-200 random selected cells.

B1: IB5: intracellularly expressed single-chain antibody (scFv) specific for PKM2, SEQ ID NO: 2; also made as monovalent recombinant scFv in E. coli (protein)
scFv: MAQVQLVETGPGLVKPSETLSLRCTVSGGSFDNYYWNWIRQPPGKGLEYIGYVFPSTGATNYNPSLGSRVTISLDTSKNQFSLTLTSVTTADTAIYYCVRSGHDLWTGSTWFDPWGQWTTVTVSSGGGGSGGGGSGGGGSEIVLTQSPGTLSLSPGERATLSCRASQSVSSSYLAWYQQKPGQAPRLLIYGASSRATGIPDRFSGSGSGTDFTLTISRLEPEDIAVYYCQQRSNWPRTFGQGTKVEIKRGLGGLASVDYKDDDDK
modifications: artificial intrabody clone 5
notes: also made as monovalent recombinant scFv in E. coli
[1]
  clonogenic survival in cells treated with etoposide: promoted clonogenic survival
[2]
  protection from BimS-induced apoptosis (clonogenicity): substantially protected
[3]
  effect on Bax-mediated membrane pore formation (MOMP) in vitro: no effect
[4]; PKM2-deficient MEFs
  rescue from BimS-induced killing: entirely abrogated
[4]; PKM2-null MEFs reconstituted with PKM2 (K270M)
  cell rescue after reconstitution: failed to support IB5-induced cell rescue
[4]; PKM2-null MEFs reconstituted with WT PKM2 cDNA
  cytoprotective ability after reconstitution: restored the cytoprotective ability of IB5
[4]; WT MEFs
  rescue from BimS-induced killing: rescued a percentage of the WT cells
[4]; early-passage MEFs reconstituted with PKM2 (K422R)
  numbers of viable cells: further increased viability
[5]
  clonogenic survival despite BimS expression: produced clonogenic survival
[6]
  shift of the PKM2 (K422R) tetramer band: shifted the tetramer band up only in the presence of allosteric activator FBP
[7]
  levels of Bax, Bak, Bid, Bim, Puma, Bcl-2, Bcl-xL and Mcl-1: failed to change the mitochondrial levels
[8]
  expression of endogenous Bim EL and L isoforms: no effect
  expression of endogenous PKM2: no effect
[9]
  average mitochondrial length: increased the average mitochondrial length
